Test results: patent US20250090676A1 (SUTRO BIOPHARMA, published 2025)

B1: SRP2060-E10 (antibody, V domains shown)
VH: EVQLLESGGGLVQPGGSLRLSCAFSGFSLSTFGMGVGWVRQAPGKGLEWVSHIWWDDDKYYHPALKGRFTISKDNSKNTVYLQMNSLRAEDTAVYYCGRNHFPHYYGSSHWYFNVWGQGTTVTVSS
VL: EIVMTQSPATLSLSPGERATLSCKASQDINSYLSWYQQKPGQAPRLLIYRANRLVDGIPARFSGSGSGTDYTLTISSLEPEDFAVYYCLQYDEFPYTFGGGTKVEIK
notes: also called Antibody 56
B2: SRP2060-B01 (antibody, V domains shown)
VH: EVQLLESGGGLVQPGGSLRLSCALSGFSLSTFGMGVGWVRQATGKGLEWVSHIWWDDDKYYHPALKGRFTISKDNSKNTVHLQMNSLRAEDTAVYYCGRNHFPHYYGSSHWYFNVWGQGTTVTVSS
VL: DIQMTQSPSTLSASVGDRVTITCKASQDINSYLSWYQQKPGKAPKLLIYRANRLVDGVPSRFSGSGSGTEFTLTISSLQPDDFATYYCLQYDEFPYTFGGGTKVEIK
notes: also called Antibody 58
B3: SRP2060-E05 (antibody, V domains shown)
VH: EVQLLESGGGLVQPGGSLRLSCAFSGFSLSTFGMGVGWVRQAPGKGLEWVSHIWWDDDKYYHPALKGRFTVSKDNSKNTVYLQMNSLRAEDTAVYYCGRNHFPHYYGSSHWYFNVWGQGTTVTVSS
VL: EIVMTQSPATLSLSPGERATLSCKASQDINSYLSWYQQKPGQAPRLLIYRANRLVDGIPARFSGSGSGTDYTLTISSLEPEDFAVYYCLQYDEFPYTFGGGTKVEIK
notes: also called Antibody 57
B4: SRP1848-E06 (antibody, V domains shown)
VH: EVQLVESGGGLVQPSGSLRLSCAASGFNINRYYIHWVRQAPGKGLEWVGGITPNDGYTDYADSVEGRFTTSADTSKNTAYLQMNSLRAEDTAVYYCARGTWSWPSGHSYYLDYWGQGTLVTVSS
VL: not shown
notes: HC variant paired with trastuzumab LC, cell-free expressed, HIS- and FLAG-tagged; also called Antibody 35
B5: SRP1848-G04 (antibody, V domains shown)
VH: EVQLVESGGGLVQPGGSLRLSCAASGFNIHSTDIHWVRQAPGKGLEWVAYITPAGGATFYADSVKGRFTISADTSKNTAYLQMNSLRAEDTAVYYCARYPYWFAGYMDYWGQGTLVTVSS
VL: not shown
notes: HC variant paired with trastuzumab LC, cell-free expressed, HIS- and FLAG-tagged; also called Antibody 49
B6: SRP1848-G06 (antibody, V domains shown)
VH: EVQLVESGGGLVQPGGSLRLSCAASGFNIRSTDIHWVRQAPGKGLEWVAYITPAGGATYYADNVKGRFTISADTSKNTAYLQMNSLRAEDTAVYYCARQPYWFAGYMDYWGQGTLVTVSS
VL: not shown
notes: HC variant paired with trastuzumab LC, cell-free expressed, HIS- and FLAG-tagged; also called Antibody 50
B7: SRP1848-G07 (antibody, V domains shown)
VH: EVQLVESGGGLVQPGGSLRLSCAASGFNIHSTDIHWVRQAPGKGLEWVAYITPAGGATWYADSVKGRFTISADTSKNTAYLQMNSLRAEDTAVYYCARYPFWFAGYMDYWGQGTLVTVSS
VL: not shown
notes: HC variant paired with trastuzumab LC, cell-free expressed, HIS- and FLAG-tagged; also called Antibody 51
B8: SRP1848-G11 (antibody, V domains shown)
VH: EVQLVESGGGLVQPGGSLRLSCAASGFNISSTDIHWVRQAPGKGLEWVAYITPAGGATWYADSVKGRFTISADTSKNTAYLQMNSLRAEDTAVYYCARYPYWFSGYMDYWGQGTLVTVSS
VL: not shown
notes: HC variant paired with trastuzumab LC, cell-free expressed, HIS- and FLAG-tagged; also called Antibody 54

How the values were obtained:
[1] = molecular target: T1, human FOLR1-HIS (human, UniProt P15328 25-233); assay: SPR (Biacore), antibody captured on anti-Fc, human FOLR1-HIS analyte, 25 C
T1 construct: Analyte of the Biacore assay; also called FolRα-ECD; extracellular domain of FOLR1; not shown: HIS tag

[2] = molecular target: T2, human folate receptor alpha (hFOLR1) (human, UniProt P15328 25-234); assay: FACS, CHO-hFOLR1 cells;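 note: flow cytometry of serially diluted antibodies binding CHO cells stably expressing the receptor, 60 min on ice, mixed with dye-tagged parental CHO as background control, one-site specific fit with Hill slope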
T2 construct: endogenous on FOLR1-positive KB and Igrov1 cells (cell killing); also called human FolR1; FolRα
Procedure: (§1) CHO cells were transfected to stably express human (CHO-hFOLR1), cynomolgus (CHO-cFOLR1), or mouse (CHO-mFOLR1) target molecule FOLR1 on the cell surface. Parental CHO cells were used as a negative control to determine background binding levels. Parental CHO and stably transfected CHO-hFOLR1, CHO-cFOLR1, and CHO-mFOLR1 cells were cultured in Ham's F-12: high glucose DMEM (50:50) (Corning, Cellgro-Mediatech) supplemented with 10% heat-inactivated fetal bovine serum (Corning, Cellgro-Mediatech), 1% Penicillin/Streptomycin (Corning, Cellgro-Mediatech) and 2 mmol/L-glutamax (Life Technology).
(§2) A mixture of fluoresecent-labeled parental CHO cells and unlabeled CHO-hFOLRlcells were prepared as follows. Parental CHO cells were washed twice in PBS and incubated in PBS containing with 1 nM CellTrace™ Oregon Green488® (Life Technologies) at 37° C. for 30 minutes. Labeled parental CHO cells were then washed 2× with Ham's F-12 media and 2× with FACS buffer (PBS with 1% bovine serum albumin). Unlabeled CHO-hFOLR1 cells were similarly washed and prepared. Labeled parental CHO and unlabeled CHO-hFOLR1 cells were combined at 1:1 ratio and seeded at 50 μL per well (200,000 cells per well) in 96 well polypropylene plates. Cells were mixed with 50 μL of test antibodies (i.e., anti-FOLR1 variants) serially diluted in FACS buffer and incubated on ice for 60 mins. […] Data were analyzed using FlowJo® software (FlowJo, LLC; Ashland, OR) to determine mean fluorescence intensities. Binding constants were calculated using the statistical software, GraphPad Prism (GraphPad Software; La Jolla, CA) using the nonlinear regression equation, one site-specific binding with Hill slope. Secondary antibody alone was used as a control, in addition to measuring non-specific antibody binding to CHO parental cells.

[3] = molecular target: T2, human folate receptor alpha (hFOLR1); assay: cell-based or functional assay
[4] = molecular target: T3, murine folate receptor alpha (mouse, UniProt P35846 25-232); assay: FACS, CHO-mFOLR1 cells;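 note: flow cytometry binding of serially diluted test antibodies to transfected CHO cells on ice, mean fluorescence intensity, parental CHO cells give background, Kd from one-site specific binding fit with Hill slope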
T3 construct: Expressed on the surface of stably transfected CHO cells; also called mouse FolR1; CHO-mouse FolR1

[5] = molecular target: T4, cynomolgus monkey folate receptor alpha (cynomolgus monkey, UniProt P15328 25-234 (human entry)); assay: FACS, CHO-cFOLR1 cells
T4 construct: Expressed on the surface of stably transfected CHO cells; also called cyno FolR1; CHO-cyno FolR1
T4 sequence (P15328 other isoform, or with tags, fused parts or gaps limits assumed): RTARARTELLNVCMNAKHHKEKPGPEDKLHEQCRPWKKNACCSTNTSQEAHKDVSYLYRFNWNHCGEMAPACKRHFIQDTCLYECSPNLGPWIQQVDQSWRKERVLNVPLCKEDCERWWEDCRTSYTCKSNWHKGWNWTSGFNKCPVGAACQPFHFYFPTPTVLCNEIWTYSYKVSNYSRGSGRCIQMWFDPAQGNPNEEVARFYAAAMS
Procedure: as §1, §2

T1 sequence (P15328 25-233 limits assumed): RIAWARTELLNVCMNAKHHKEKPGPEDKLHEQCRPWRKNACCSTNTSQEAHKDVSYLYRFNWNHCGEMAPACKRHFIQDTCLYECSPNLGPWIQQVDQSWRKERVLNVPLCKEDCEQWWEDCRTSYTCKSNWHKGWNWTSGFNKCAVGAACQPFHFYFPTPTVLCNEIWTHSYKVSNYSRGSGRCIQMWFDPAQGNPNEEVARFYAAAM
T2 sequence (P15328 25-234 limits assumed): as the sequence (P15328 other isoform, or with tags, fused parts or gaps limits assumed) above, with T2I, R4W, K37R, R117Q, P146A, Y171H counted along it
T3 sequence (P35846 25-232 limits assumed): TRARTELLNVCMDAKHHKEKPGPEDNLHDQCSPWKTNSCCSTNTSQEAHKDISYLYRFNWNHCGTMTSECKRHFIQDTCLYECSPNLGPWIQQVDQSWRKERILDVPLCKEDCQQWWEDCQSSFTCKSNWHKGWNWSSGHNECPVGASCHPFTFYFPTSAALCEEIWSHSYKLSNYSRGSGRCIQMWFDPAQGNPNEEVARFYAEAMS

Binder | Kd [1] [nM] | koff [1] [s⁻¹] | kon [1] [M⁻¹ s⁻¹] | Bmax (MFI) [2] [MFI] | Kd [2] [nM] | Igrov, 2° Antibody Cell Killing, Nb-SC239: EC50 [3] [nM] | Igrov, 2° Antibody Cell Killing, Nb-SC239: Span [3] [%] | KB, 2° Antibody Cell Killing, Nb-239: Span [3] [%] | Bmax (MFI) [4] [MFI] | Kd [4] [nM] | Bmax (MFI) [5] [MFI] | Kd [5] [nM] | KB, 2° Antibody Cell Killing, Nb-239: EC50 [3] [nM]
B1 | 2.06 | 0.0012 | 582000 | – | – | – | – | – | – | – | – | – | –
B2 | 2.62 | 0.00147 | 561000 | – | – | – | – | – | – | – | – | – | –
B3 | 2.92 | 0.00158 | 541000 | – | – | – | – | – | – | – | – | – | –
B4 | – | – | – | 25600 | 0.48 | 0.025 | 74 | 93 | 2350 | 1.2 | 15800 | 0.26 | –
B5 | – | – | – | 25200 | 0.76 | 0.016 | 75 | 92 | 2000 | 2.5 | 12500 | 0.25 | 0.051
B6 | – | – | – | 25800 | 0.63 | 0.026 | 81 | 96 | 1860 | 11.1 | 12800 | 0.31 | 0.057
B7 | – | – | – | 24900 | 0.78 | 0.038 | 78 | 94 | 1980 | 2.9 | 13700 | 0.35 | 0.058
B8 | – | – | – | 27200 | 0.68 | 0.023 | 84 | 97 | 2740 | 7.6 | 11800 | 0.26 | 0.04
